T1: S12-C2 (human, UniProt Q96PQ1 1-481)
T1 construct: also called siglec12 C2set2 region
T1 sequence: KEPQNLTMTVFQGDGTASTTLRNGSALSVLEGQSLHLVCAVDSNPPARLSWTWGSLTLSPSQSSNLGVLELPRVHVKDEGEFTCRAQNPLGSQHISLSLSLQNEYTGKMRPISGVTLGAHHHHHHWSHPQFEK

B1: S0023 (antibody, V domains shown)
VH: EVQLLESGGGLVQPGGSLRLSCAASGFTFSTFAMSWVRQAPGKGLEWVSTISGGGDSTYYADSVKGRFTISRDNSKNMMSLQMNSLRAVDTAVYYCVKGGGDEYFYYGMDVWGQGTTVTVSS
VL: DIQMTQSPSSLSASVGDRVTITCRASQGIRNDLGWYQQKPGKAPKRLIYSASSLQSGVPSRFSGSGSGTEFTLTISSLQPEDFATYYCLQHNSYPYTFGQGTPLDIKR
notes: human variable domains with mouse constant regions (Trianni mouse hybridoma)
B2: S0102 (antibody, V domains shown)
VH: QVQLVESGGGVVQPGRSLRLSCAASGFTFSSYGMHWVRQAPGKGLEWVAVISYDGSNKYYTDSVKGRFTISRDNSKNTLYLQMNSLRAEDTAVYYCARGGYYGSGSLDYWGQGTLVTVSS
VL: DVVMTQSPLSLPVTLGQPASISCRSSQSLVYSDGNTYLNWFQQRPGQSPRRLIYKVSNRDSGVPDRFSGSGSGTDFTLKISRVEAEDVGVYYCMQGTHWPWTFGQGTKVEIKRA
notes: human variable domains with mouse constant regions (Trianni mouse hybridoma); also called S0102 anti-Siglec12 antibody
B3: S0040 (antibody, V domains shown)
VH: QVQLVQSGAEVKKPGASVKVSCKASGYTFTSYDINWVRQATGQGLEWMGWMNPNSGNTGYAQNFQGRVTMTRNTSINTAYMELSSLRSEDTAVYYCTRGGPTLVRGVIIRDAFDFWGQGTMVTVSS
VL: EIVMTQSPATLSVSPGERATLSCRASQSVSNSFAWYQQKPGQAPRLLIYGAFTRATGIPARFSGSGSGTEFTLTISSLQSEDFAVYYCQQYKTWPLTFGGGTKVEIKR
notes: as for B1
B4: S0103 (antibody, V domains shown)
VH: B3 VH with N73D, I76V, T97A, T102N
VL: B3 VL with T69I
notes: as for B1
B5: S0057 (antibody, V domains shown)
VH: QGQLVQSGAEVKKPGASVKVSCKASGYTFNNYGISWVRQAPGQGLEWMGWISAYNGFTRSTQKFQGRVTLTTDTSTSTAHMELRSLRSDDTAAYYCARDGGDGFDPWGQGTLVTVSS
VL: EIVLTQSPATLSLSPGERATLSCRASQSVSSFLAWYQQKPGQAPRLLIFDASNRATGIPARFSGSGSGTDFTLTISSLEPEDFAVYYCQQRSNWITFGQGTRLEIKRA
notes: human variable domains with mouse constant regions (Trianni mouse hybridoma); also called S0057 whole antibody
B6: S0042 (antibody, V domains shown)
VH: QVQLVQSGTEVKKPGASVKVSCKVSGYTLSDLSIHWVRQAPGKGLEWMGGFEPEDGEIIYAQKFQGRVIMTEDTSTDTAYMKLSSLRSEDTAVYYCATDKRYFDWLLSGFDYWGQGTLVTVSS
VL: DIQLTQSPSFLSASVGDRVTITCRASQGISSYLAWYQQKPGKAPKLLIFAASTLQSGVPSRFSGSGSGTEFTLTISSLQPEDFATYYCQRLHSYPRTFGQGTKVEIKRA
notes: as for B1

Where a chain is given by its changes, count along the chain named.

T9 sequence (chain, as listed by the source limits assumed): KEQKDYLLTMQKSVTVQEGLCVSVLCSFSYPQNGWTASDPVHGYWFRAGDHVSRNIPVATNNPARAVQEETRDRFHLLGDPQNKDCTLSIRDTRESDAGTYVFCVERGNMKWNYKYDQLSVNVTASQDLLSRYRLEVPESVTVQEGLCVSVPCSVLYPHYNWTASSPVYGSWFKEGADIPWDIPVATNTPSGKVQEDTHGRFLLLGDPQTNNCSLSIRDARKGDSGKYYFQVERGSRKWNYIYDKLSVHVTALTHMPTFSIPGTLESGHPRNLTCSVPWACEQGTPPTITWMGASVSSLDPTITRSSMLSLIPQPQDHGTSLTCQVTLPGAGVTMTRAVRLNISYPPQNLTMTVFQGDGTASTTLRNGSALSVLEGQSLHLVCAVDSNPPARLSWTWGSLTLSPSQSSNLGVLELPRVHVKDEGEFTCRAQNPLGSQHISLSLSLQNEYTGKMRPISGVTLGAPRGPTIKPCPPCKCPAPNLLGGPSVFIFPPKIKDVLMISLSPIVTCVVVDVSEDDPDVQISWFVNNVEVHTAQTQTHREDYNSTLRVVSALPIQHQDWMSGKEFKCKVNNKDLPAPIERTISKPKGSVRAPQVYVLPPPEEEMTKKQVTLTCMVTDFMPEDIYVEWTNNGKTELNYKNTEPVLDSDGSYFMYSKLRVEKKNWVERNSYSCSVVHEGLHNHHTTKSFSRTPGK
T8 sequence (Q9NYZ4 17-499 limits assumed): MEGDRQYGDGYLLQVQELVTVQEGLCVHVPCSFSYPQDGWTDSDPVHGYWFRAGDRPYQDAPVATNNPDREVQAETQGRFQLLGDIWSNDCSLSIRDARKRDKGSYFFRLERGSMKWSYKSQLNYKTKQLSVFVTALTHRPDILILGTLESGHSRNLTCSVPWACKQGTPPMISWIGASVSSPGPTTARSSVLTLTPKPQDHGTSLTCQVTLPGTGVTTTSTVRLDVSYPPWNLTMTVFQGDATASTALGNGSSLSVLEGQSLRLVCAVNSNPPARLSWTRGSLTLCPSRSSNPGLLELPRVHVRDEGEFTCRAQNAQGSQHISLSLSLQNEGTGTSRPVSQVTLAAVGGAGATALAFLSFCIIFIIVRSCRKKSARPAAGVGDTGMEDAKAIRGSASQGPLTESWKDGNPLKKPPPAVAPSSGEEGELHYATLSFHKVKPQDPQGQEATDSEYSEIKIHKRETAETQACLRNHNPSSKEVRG
T3 sequence (Q9Y336 18-348): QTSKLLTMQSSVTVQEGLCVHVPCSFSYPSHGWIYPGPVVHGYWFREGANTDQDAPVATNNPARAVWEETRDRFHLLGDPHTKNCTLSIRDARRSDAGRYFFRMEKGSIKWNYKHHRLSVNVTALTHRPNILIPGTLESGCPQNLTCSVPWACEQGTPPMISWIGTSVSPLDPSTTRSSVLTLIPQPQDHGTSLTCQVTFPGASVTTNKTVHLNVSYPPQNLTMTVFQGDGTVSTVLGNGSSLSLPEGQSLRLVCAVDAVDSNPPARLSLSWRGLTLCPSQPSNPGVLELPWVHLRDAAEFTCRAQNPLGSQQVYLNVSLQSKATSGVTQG
T6 sequence (Q9Y286 19-467 limits assumed): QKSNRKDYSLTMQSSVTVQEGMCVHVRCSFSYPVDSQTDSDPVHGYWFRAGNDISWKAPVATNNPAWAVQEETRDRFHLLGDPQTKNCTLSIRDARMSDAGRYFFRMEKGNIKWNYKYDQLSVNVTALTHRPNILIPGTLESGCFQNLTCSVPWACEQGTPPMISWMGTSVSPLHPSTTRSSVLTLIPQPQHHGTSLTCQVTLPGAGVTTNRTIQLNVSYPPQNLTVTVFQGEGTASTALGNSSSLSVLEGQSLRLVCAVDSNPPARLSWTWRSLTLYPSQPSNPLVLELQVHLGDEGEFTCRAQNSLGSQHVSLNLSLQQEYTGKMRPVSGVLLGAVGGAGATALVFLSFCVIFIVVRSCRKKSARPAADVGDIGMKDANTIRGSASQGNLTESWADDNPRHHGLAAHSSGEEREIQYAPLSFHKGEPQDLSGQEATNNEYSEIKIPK

For the first experiment, the target named is T2, S7ecto-Fc (human siglec7 ectodomain fused with human Fc domain) (human, UniProt Q9Y286 19-353).
T2 construct: extracellular domain; bought from R&D Systems; not shown: human Fc domain
T2 sequence (Q9Y286 19-353): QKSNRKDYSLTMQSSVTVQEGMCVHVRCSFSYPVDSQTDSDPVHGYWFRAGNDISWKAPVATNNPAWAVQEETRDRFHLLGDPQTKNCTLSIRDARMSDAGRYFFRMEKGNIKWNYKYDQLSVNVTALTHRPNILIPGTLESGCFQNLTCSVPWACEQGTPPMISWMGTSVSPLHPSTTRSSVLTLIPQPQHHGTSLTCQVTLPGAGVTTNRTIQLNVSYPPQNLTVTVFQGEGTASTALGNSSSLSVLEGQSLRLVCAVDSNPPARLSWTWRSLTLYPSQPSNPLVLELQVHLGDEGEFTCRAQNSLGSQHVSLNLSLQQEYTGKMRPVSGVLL
Put plainly: ELISA. The protocol:
(§1) Fusion proteins of human siglec7 or siglec9 ectodomains fused with human Fc domains (R&D Systems, Minneapolis, MN) were immobilized on assay plates and incubated with media from hybridoma cultures described above before detection of bound antibodies using anti-mouse (heavy/light) secondary antibody conjugated to HRP. Levels of bound secondary antibody were assessed by applying colorimetric substrate and measuring absorbance values at 450 nm.
The molecule B1 displayed an A450 of 0.05.

In the case of B2, the A450 stood at 0.07.

B3 had an A450 of 0.05.

The molecule B4 registered an A450 of 0.06.

The molecule B5 returned an A450 of 0.07.

Take B6: the A450 was determined as 0.06.

A further experiment has as its target T3, S9ecto-Fc (human siglec9 ectodomain fused with human Fc domain) (human, UniProt Q9Y336 18-348).
T3 construct: extracellular domain; bought from R&D Systems; not shown: human Fc domain
Put plainly: ELISA. Here is the method:
as §1
B1 registered an A450 of 0.05.

In turn, B2 yielded an A450 of 0.06.

In the case of B3, the A450 is 0.05.

In turn, B4 came in with an A450 of 0.05.

Turning to B5, the A450 stood at 0.08.

As for B6, the A450 worked out at 0.05.

For the next experiment, the target named is T4, S12-V1 (human).
T4 construct: also called siglec12 Vset1 region
T4 sequence (chain, as listed by the source limits assumed): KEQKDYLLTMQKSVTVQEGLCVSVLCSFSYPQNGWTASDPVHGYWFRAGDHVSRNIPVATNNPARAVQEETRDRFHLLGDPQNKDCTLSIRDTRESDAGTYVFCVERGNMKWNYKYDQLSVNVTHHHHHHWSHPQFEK
Put plainly: ELISA. Here is the method:
(§2) For ELISA assays, purified subdomain proteins were passively immobilized on assay plates and incubated with media from hybridoma cultures described above before detection of bound anti-subdomain antibodies using anti-mouse (heavy/light) secondary antibody conjugated to horseradish peroxidase (HRP). Levels of bound secondary antibody were assessed by applying colorimetric substrate and measuring absorbance values at 450 nm. Absorbance values greater than 0.07 indicate specific binding.
In the case of B1, the binding result is listed as “no binding (tested: A450 0.07)”.

For the molecule B2, the binding result is given as “no binding (tested: A450 0.07)”.

B3: the binding result is reported as “no binding (tested: A450 0.07)”.

B4: the binding result is reported as “no binding (tested: A450 0.07)”.

B5: the binding result is “no binding (tested: A450 0.07)”.

Molecule B6 had an A450 of 0.1.

The target in another experiment is T5, S12-V2C1 (human, UniProt Q96PQ1 1-358).
T5 construct: also called siglec12 Vset2-C2set1 region
T5 sequence (Q96PQ1 other isoform, or with tags, fused parts or gaps limits assumed): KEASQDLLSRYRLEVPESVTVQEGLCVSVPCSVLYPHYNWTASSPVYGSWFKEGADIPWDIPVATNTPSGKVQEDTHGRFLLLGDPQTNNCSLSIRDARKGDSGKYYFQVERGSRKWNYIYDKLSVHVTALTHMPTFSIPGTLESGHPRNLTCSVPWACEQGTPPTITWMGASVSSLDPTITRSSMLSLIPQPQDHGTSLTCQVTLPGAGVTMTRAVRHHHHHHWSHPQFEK
Put plainly: ELISA. Here is the method:
as §2
For the molecule B2, the A450 worked out at 1.65.

B3: the binding result is listed as “no binding (tested: A450 0.07)”.

Regarding B4, the binding result is recorded as “no binding (tested: A450 0.07)”.

B5 gave an A450 of 0.62.

Take B6: the binding result is reported as “no binding (tested: A450 0.07)”.

A further experiment has as its target T1, S12-C2. Put plainly: ELISA. The protocol:
as §2
With B1, the binding result was “no binding (tested: A450 0.07)”.

The molecule B2 came in with an A450 of 0.08.

For the molecule B5, the binding result was “no binding (tested: A450 0.07)”.

Regarding B6, the binding result is on record as “no binding (tested: A450 0.07)”.

The next experiment addresses T6, siglec7 with C-terminal FLAG tag on Expi 293 cells (UniProt Q9Y286 19-467, limits assumed).
T6 construct: whole, on cells; not shown: C-terminal FLAG tag
Put plainly: flow cytometry, transfected Expi 293, 500 nM. The protocol: (§3) To verify anti-siglec12 antibody specificity for native siglec12 (over other siglec family members), cross-reactivity analysis was carried out using flow cytometry. Expi 293 cells were grown in 6 well plates and transfected with […] of pcDNA3.1 expression vectors (Thermo Fisher Scientific, Waltham, MA) with inserts encoding siglec6, siglec7, siglec8, siglec9, or siglec12 proteins with C-terminal FLAG tags. The following day, Expi293 enhancers were added. On day 2 (post-transfection) cells were washed in PBSB and aliquoted into plastic V-bottomed plates at a density of 5×10⁵ cells/well. An aliquot was also used for Western blot analysis to confirm siglec expression (using anti-FLAG antibody as described below). Plated cells were incubated with anti-siglec12 antibodies at a concentration of 500 nM or siglec-specific control antibody (all from R&D Systems, Minneapolis, MN; Siglec6-specific clone 767329; Siglec8-specific clone 837535; Siglec9-specific clone 191240) at a concentration of 12.5 μg/mL for 2 hours on ice. Cells were then washed with ice cold PBSB and incubated with PE-goat anti mouse H/L chain secondary antibody (1:400 in PBSB) for 30 minutes on ice. Cells were again washed with ice cold PBSB and analyzed for surface staining based on fluorescence intensity determined by GUAVA® […]™ Plus flow cytometer.
B1 came in with an MFI of 2.1.

B5 registered an MFI of 2.8.

B6 showed an MFI of 3.9.

In a further experiment the target is T7, siglec9 with C-terminal FLAG tag on Expi 293 cells (UniProt Q9Y336 18-463, limits assumed).
T7 construct: whole, on cells; not shown: C-terminal FLAG tag
T7 sequence (Q9Y336 18-463 limits assumed): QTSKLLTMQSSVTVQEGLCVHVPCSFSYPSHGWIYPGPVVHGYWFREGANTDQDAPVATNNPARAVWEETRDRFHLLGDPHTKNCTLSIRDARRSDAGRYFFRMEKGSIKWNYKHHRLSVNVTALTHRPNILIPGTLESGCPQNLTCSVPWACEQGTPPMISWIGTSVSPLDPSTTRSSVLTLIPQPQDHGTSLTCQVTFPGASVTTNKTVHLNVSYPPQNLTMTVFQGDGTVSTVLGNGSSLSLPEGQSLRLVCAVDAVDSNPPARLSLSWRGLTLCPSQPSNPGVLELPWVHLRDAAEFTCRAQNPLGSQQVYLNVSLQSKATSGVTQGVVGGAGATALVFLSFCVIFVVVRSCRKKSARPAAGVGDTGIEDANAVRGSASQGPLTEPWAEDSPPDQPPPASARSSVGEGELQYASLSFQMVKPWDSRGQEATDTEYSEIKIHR
Put plainly: flow cytometry, transfected Expi 293, 500 nM. Here is the method:
as §3
In the case of B1, the MFI is 3.

The molecule B5 yielded an MFI of 1.3.

Molecule B6 had an MFI of 2.3.

The next experiment concerns the target T8, siglec8 with C-terminal FLAG tag on Expi 293 cells (UniProt Q9NYZ4 17-499, limits assumed).
T8 construct: whole, on cells; not shown: C-terminal FLAG tag
Put plainly: flow cytometry, transfected Expi 293, 500 nM. Here is the method:
as §3
Molecule B1 came in with an MFI of 2.8.

B2: the MFI is 7.

Turning to B5, the MFI amounted to 6.3.

In the case of B6, the MFI turned out to be 5.3.

The next experiment has as its target T9, S12-Fc (human siglec12 extracellular domain fused with mouse Fc2a fragment) (human; mouse).
T9 construct: also called S12ecto-mouse Fc2a
Put plainly: ELISA. The protocol: After 6 weeks of immunization, serum samples from immunized mice were screened for the presence of siglec12-specific immunoglobulins. Screening was carried out by enzyme-linked immunosorbent assay (ELISA) and by fluorescence-associated cell sorting (FACS). ELISA assays utilized assay plates coated with S12-Fc target antigen for immobilization of siglec12-specific immunoglobulins from mouse serum samples, which were detected using anti-mouse light chain (kappa and lambda) secondary antibody conjugated to horseradish peroxidase (HRP). The level of bound secondary antibody was assessed by incubation with colorimetric peroxidase substrate followed by measurement of light absorbance intensity values obtained at 450 nm. For FACS analysis, serum samples were combined with U937 cells (Fc receptor blocked with 10% human serum), an AML cell line that overexpresses human siglec12. Immunoglobulin binding to siglec12 associated with these cells is a strong indicator of potential immunotherapeutic use to treat AML. Anti-mouse heavy chain fluorescent detection reagents were used to label cell surface-bound serum immunoglobulins before FACS analysis. Lymph node and spleen cells from the three best responders were harvested and fused with P3X63Ag8.653 mouse myeloma cells. After 10-14 days of selection, the resulting hybridoma library was single-cell cloned into 96-well culture plates using FACS. After 10-14 days of single cell expansion, all monoclonal hybridoma culture supernatants were screened for S12-Fc binding immunoglobulins by ELISA. Supernatant positive for S12-Fc-binding immunoglobulins was further screened by FACS for immunoglobulin binding to U937 cells. The Table includes an antibody identification number (ID #) assigned to siglec12-binding antibodies associated with each hybridoma culture. For ELISA results, background adjusted mean absorbance values obtained at 450 nm are shown. For FACS analysis, Flow Fluor MFI is the mean fluorescence intensity from flow cytometry assay (background MFI=100) and flow % gated is the percentage of cells having greater than background fluorescence.
In turn, B2 came in with an A450 of 3.34.

Take B5: the A450 was 2.64.

With B6, the A450 is 1.99.

A further experiment addresses T2, S7ecto-Fc (human siglec7 ectodomain …). Put plainly: ELISA. The source holds these as a separate data set.
For the molecule B5, the binding result is listed as “no binding (tested: A450>0.09 (so in the source))”.

(Values after patent US20250019432A1 (MABLYTICS, published 2025).)
